In the supplement of paper PMC10567573:
± gives the standard deviation.

Assay: protein stability index of a GFP-peptide fusion (GPS, HEK-293T) (PSI 1-6); higher = more stable
Details: c terminus: a fixed tail appended
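Further: 24-mer peptide tiles fused after GFP, lentivirally expressed, FACS-sorted into six equal bins by GFP/DsRed ratio, decoded by Illumina sequencing, PSI is the read-weighted mean bin number.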

Sequence	protein stability index (treatment: DMSO)	protein stability index (treatment: MLN4924 1 uM, 8 h)
SWVDDTPFNKVQSARFWIPGEPNN [CD207]	2.44 ± 0.15	2.51 ± 0.45
LVQKDQHSFELDEKALASILLQDH [ATL3]	3.43 ± 0.35	3.38 ± 0.28
TIEGTSDDLTVVDAASLRRQIIKL [MFF]	4 ± 0.34	4.08 ± 0.16
INLEGKTFYSKKDRPLCKSHAFSH [PDLIM7]	2.55 ± 0.077	2.71 ± 0.33
VAPADVRRLLSYCKGRDHGVLDAL [ZSWIM9]	2.46 ± 0.28	2.68 ± 0.46
QAAVAAGDVHTVRKMLEQGYSPNG [ASB7]	4.09 ± 0.31	4.11 ± 0.12
EIYKRFLTRMTRVSEFLKVAEQVG [SNAP91]	2.44 ± 0.63	2.45 ± 0.24
TQIKGLKNKPKKMGHIKPDLIDVD [PHTF1]	4.42 ± 0.16	4.34 ± 0.26
YYIPLVELVPHPETAPTTVDRTHA [CRYL1]	3.06 ± 0.28	3.1 ± 0.26
PRPRRAKRFASLSRFVETLVVADD [ADAMTS4]	3.65 ± 0.45	3.69 ± 0.12
IFLNGNRERPLNVFCDMETDGGGW [TNXB]	1.91 ± 0.48	2.67 ± 0.54
EAGAMTFHYIIEQGVCYLVLCEAA [SEC22B]	3.08 ± 0.23	3.01 ± 0.33
LELGHWLYQTELVENECYQVFLDR [TOR1AIP2]	2.38 ± 0.038	2.26 ± 0.32
KHYRLQFYMFAWTHVTLLITVTQS [CDS1]	2.93 ± 0.18	3.16 ± 0.16
LTAHLLPPRQALGSLCSPWAAPRV [YPEL3]	2.56 ± 0.36	2.45 ± 0.36
WMWLSCSSFFQQFFHCYCPVGFGR [CRY1]	2.42 ± 0.2	2.4 ± 0.25
GHNSPLYKRQEESGAAASLNVDAA [CHIT1]	5.19 ± 0.19	5.11 ± 0.22
SWRVGVVRVRQDSGAEGHSHSCYH [TRIM35]	3.02 ± 0.41	3.2 ± 0.32
YFTQTLLPGLAGPSGEMVKSTTSL [MLH1]		2.51 ± 0.21
IHFTLIQAFCCENDINILRVSNPG [GADD45A]	3 ± 0.46	2.71 ± 0.45
DDEGDSYSDNPCSCSQSHCCSRYL [SPRY1]	4.45 ± 0.21	4.57 ± 0.23
TLASAGGPDNLVLLNPEKYKAKSR [ADD1]	4.22 ± 0.22	4.31 ± 0.2
MGKRDTADIISTVEFNHTGELLAT [PPP2R2C]	3.62 ± 0.21	3.89 ± 0.31

Sequence	protein stability index (treatment: DMSO)	protein stability index (treatment: MLN4924 1 uM, 8 h)
IDYKTTTILLDGRRVKLQLWDTSG [RAB40B]	2.42 ± 0.12	2.56 ± 0.24
NDTYRTDLCLLYPPFMIALACLHV [CCNC]	3.07 ± 0.38	2.97 ± 0.23
ADGSPPLLPPGEPPLLGTFPRDHT [ANKRD40]	4.8 ± 0.28	4.49 ± 0.21
GCECEDGPDGQEMDPPNPEEVKTP [GAGE1]	5.48 ± 0.25	5.81 ± 0.14
TMGLAGRARVKEKFSPEAFTEQLY [ALG2]	2.94 ± 0.26	2.96 ± 0.13
EALAKWAEGRTGFPWIDAIMTQLR [CRY1]	3 ± 0.085	2.73 ± 0.21
VFAPVYFPEELHRKAALEQDLAFW [HMOX1]	2.14 ± 0.43	2.4 ± 0.38
AEDLGNLWENTRFTDCSFFVRGQE [SPOPL]	3.69 ± 0.32	3.74 ± 0.24
KQYQQRAFGWFRCSSCQRSWASAQ [RTP4]	2.39 ± 0.34	2.25 ± 0.54
AVEWARNIPFFPDLQITDQVALLR [NR2F2]	2.64 ± 0.2	2.79 ± 0.22
LNVDAAVQQWLQKGTPASKLILGM [CHIT1]	2.21 ± 0.36	2.25 ± 0.39
GPPVGPLSLGLATVDIQNPDITSS [WAS]	4.68 ± 0.23	4.39 ± 0.24
SSEHFEKLHEIFRGLHEDLQGVPE [VTI1B]	4.11 ± 0.32	3.97 ± 0.12
PFLLLFLGNFFTTLRVVHHKFHSQ [TMEM120A]	3.28 ± 0.37	3.1 ± 0.22
RKLLESEECRMSGEFPSPVSISII [KRT71]	2.42 ± 0.42	2.19 ± 0.19
IFEPPVRNSGIIGGKYLGRTKVVK [EFHC1]	3.42 ± 0.3	3.62 ± 0.28
RYLTFFHNYNILIATLRVALPSVM [MCOLN1]	3.31 ± 0.65	3.05 ± 0.54
LQWKSSHFERRDNMNDNFLEGEEE [CHGB]	5.36 ± 0.44	5.49 ± 0.23
AFNQNSSLGRHKRTHTGEKPYTCS [ZNF8]	3.42 ± 0.33	3.79 ± 0.49
DEPCAISGKWTFQRDSKRWSRLEE [DLC1]	3.99 ± 0.14	3.91 ± 0.33
ARLLCRLQAFGETLLLELEQDSGV [ADAMTS4]	2.66 ± 1.3	2.73 ± 0.29
KPQAPQKLDPTLSSCFFIESCGAQ	3.35 ± 0.28	3.15 ± 0.21
